Experimental data from the DeepSol protein solubility set.

Test: soluble on expression in E. coli; label from the status in PepcDB or PDB records

Q: With “MGSDKIHHHHHHMMAPNQFSSGDVIADRRADYARMLAESGDYPAAAELMEQALELAPRWTAGWFRFGEYHEKAGETAKAVAAYEKVAELDAEGLFAAELKLAVLGAAETPEQPPSRYVEGLFDDYADRFETSLVEKLDYSVPQKLAELIGKAATGDAFDTIVDIGCGTGLLGIEIRSLAKRLEGFDISQNMLAKADEKSLYDHLGQADLSLDAEASGLFTPVLTQHRADLVAAADVMMYLGSLETVMPLVSALLKPSGFFAFSVEDAGDEQGFVLRESLRYAHSKSYVIDLLERSGFSPMEIRKTTIRKDAGKPLSGILFLARAKA” as the sequence, how does the “soluble on expression in E. coli” value read?
A: not soluble

Q: For “MGSDKIHHHHHHMMATIKDIAKEVGCSISTVSRVLNNDPTLSVGDETRSRIFEVAEEIGYRKKTLKTLVKNIAFLYWLTDNEELEDVYFQTMRVEIEKKARENNIELTTYKLEGGIEKIPLDIDGFIAVGSFMNRELEYLRELTPHGVFIDSTPDPAHYDSVRPDLAQITRQAVEVLVEQGHEKIGFIGGTYHNLDTDAEEMDGRERAFRQTMEERDLLREDFIFCRRGFSVDNGHYLMNQAVEQLGEELPTAFYVAADPIAVGCLQVLNEQQIEIPKRVSLISVNDTSISKYVSPPLTTFHIDLEEICQNAIQLLLERVLKKRNIVKTVYIGAELITRKSTL”, which “soluble on expression in E. coli” value is on record?
A: not soluble

Q: For “MGSDKIHHHHHHMMAYLVFLGPPGAGKGTYAKRLQEITGIPHISTGDIFRDIVKKENDELGKKIKEIMERGELVPDELVNEVVKRRLSEKDCERGFILDGYPRTVAQAEFLDGFLKTQNKELTAAVLFEVPEEVVVQRLTARRICPKCGRIYNLISLPPKEDELCDDCKVKLVQREDDKEETVRHRYKVYLEKTQPVIDYYDKKGILKRVDGTIGIDNVIAEVLKIIGWSDK”, which “soluble on expression in E. coli” value is on record?
A: not soluble

Q: With “MGSDKIHHHHHHMMDLEGYVRRCLRKKIPENKIIEDGFKRILEIKEDVDEEFAKKFIKAILEEVKTTEKFREIDDENLKTLLKYPKSGVTMGRMGVGSRGEGDFFVHREIARIVKSTKVKAYVSAEEQDDAGIVRADAKYIVAAIDGTHSRLSDFPFLGGFHVTRAALRDIYVMGAEAVALISDVHLADDGDVGKIFDFTAGICAVSEAVNVPLIGGSTLRVGGDMVIGDRLVSAVGAIGVIKEGEPTARRNAEVGDVILMTEGSGGGTITTTALYYGWFDVIYETLNVDFIKACQNLIRSGLIKKIHAMTDVTNGGLRGDAYEISKTAKVSLIFDKEKVYKTINPKVLEMLEVLNIDPLGVSTDSLMIICPEEYADDIKKVTGAIEVGYVEEGEESYLVDGNKKIPLKPMFRESAYTPVKKVVGERKPGDFEEMKEKVRRACDEAIKKKDFVVELLKERKKKF” as the sequence, how does the “soluble on expression in E. coli” value read?
A: not soluble

Q: Which “soluble on expression in E. coli” value does the source give for “MGSDKIHHHHHHMMLTTKLIYCCLVSIVLHPINNLNPKPYISLFNLQGILLPTQFSHSLTSLDAFAPRLLAWFEINGRHDLPWQQHQTDTPNPYIVWLSEVMLQQTQVTTVLPYFARFMASFPTVQDLAAAEWDTVAEHWAGLGYYARARNLHKGAKQLVEVIDETGEYPTTLAGWEAISGVGPSTAGAIMAMGLHRYGVICDGNVKRVLTRWAAIDGDITKSATTKELWALAERLTPKENSGLFAQAMMDMGATLCTRSKPACLLCPLQDDCLAHAQGRETDYPVKAKKQPKPSKFSNALLIENENGEILWLQRPDNGIWGGLWSLPLAFIEKISGKVAVKDADKNKNKELIAANDNQLLEVASNEKVYETEFTTAEQIINEWINKNELVAKSVNDTLLDDSPIKHSLTHFHWYLTPQTVNLNTKQAQEITEALQAGEININWLNADDAQATLGLPKAMVKILE” here?
A: not soluble

Q: With “MGSDKIHHHHHHMMNVLRDGCSERGTARVGKHHDLKTVRWYVLTLPTTGVARRDKISPAKSLDAELSRRKRRGETLFEYFAPSYVEVRKVDGKMVNTKRPLLFNYVFIRSSVEEIFQMKRTLPLYNFLPRVSSGGMTHFPYLSDSEMGNLRWVAESYSNELPVYVPDSNRLLKGDRVRITSGYFTGMEAEVVIQPGGGHKDVMARILDCMWVPLLEVKPGEYELIELNTKGKHAYTHLDNDRLREGLHDALGRYHTSGSVAEEDTRLACEVLRSYGSLRAETDVMRCKIYSLLLSAYKLLGDEEEFTRLHDTMRGMLPVVKAPQSRALLLVTLYGCTDSALYRQMAHEVVDPWRGESSPKKSKLSLIRRLDDCDRWLRHNE” as the sequence, how does the “soluble on expression in E. coli” value read?
A: not soluble

Q: With “MGSDKIHHHHHHMMRVFHLVLAPRLSGAEVLAKDLALDQCAEGMAVCVASLLPAHAEFAPLQDDLQRHGVQCVFPRRRHRALVKLCHLFGAVRRFRPDVIFAHATIPSFYARALPLRVPVVYVMHSATNDFERPLFRRIEHILSGRARVVIGVSEQGVTDYVQAIGPHPSMTVVPNGVDLARFSFTDGVERDGRTPQVVQIGRYAAVKNQLATVRAFSEVLMKGKDARLVLYGVVEDPDYQRAVVALAKELGIAERVVVAGPRTDVATVLSESNVFVMPSQSEAHSVAFLEALASGVPIVASKIPAFAFANGFPGVQLIDTDNVQCYAEAVIAALGQERAQRSLTGLTLRDTADRYRAIARQVSLAVPAR” as the sequence, how does the “soluble on expression in E. coli” value read?
A: not soluble

Q: For “MGSDKIHHHHHHMMTAHAIGTREEWLAARLDLLEAEKNLTRRSDELAKWRRELPWVRIDKAYRFETDEGEASLRDLFKGRSQLLVYHFMFGPDYTAGCPSCSAIADGFNGIVAHLENHDVAFSAVSRAPLAKLTAYKRRLGWSFPWASSDDGAFNRDFCVWFTEQQQREGGIEYNFRREPPIPEQPASEPLAGRTVREWDASGSEGPVAQIAAMTGTDVATYTRDRPGVSAFALEDGIVYHTYSSYARGLDGLWGMYQWLDRTPKGRNENGIWWRRHDEYAQG”, which “soluble on expression in E. coli” value is on record?
A: not soluble

Q: For “MGSDKIHHHHHHMMTMRIAMISIHTSPLQQPGSGDAGGMNVYIISIARELARRGVDVDIYTRATRPSQGDVVEVESGLRVINIVAGPYEGLSKEELPTQLAAFAGGVVQFAKCHHMRYDVIHSHYWLSGQVGWLLRDLWNIPLVHTAHTLAAVKNAHRSAGDTEESEARRICEQQLVDNADILVVNTPEETNDLVRHYDANPDSVAVIAPGANVELFTPGTQRNTEQSRRCLGIPLHTKVMAFVGRLQQFKGPEVLLRAVAEMLERDPDRDMRVIMCGGPSGAAATVEHYIELTRSLGIAHRVRFLDPRPPEELVSVYQAADVVAVPSYNESFGLVAMEAQASGTPVVAARVGGLPIAVVDGETGVLVDGHDPIMWADALEQLLDDDPTRQQMGVAAVEHAANFTWAAAAEKLESVYGDAAMLDVAQCHDRYAAGSDRA”, which “soluble on expression in E. coli” value is on record?
A: not soluble

Q: With “MGSDKIHHHHHHMMVLEQPLKSFFTSLSQSKSMNKLAKKWGLKLGASQVVAGVTISEAIEKVKELNEKGLSATLDHLGEFVEERTEAIEATDHCIQTLEQIASSGVNCNLSLKLTQLGLDIDQSFCLENMERIIKKAAELGIFVRIDMEDYGHCQQTLDILAELRKTYDNVGTVIQAYLFRALDDVRALEGIPLRLVKGAYKESPEVAYQEKEKIDENYFNMIKLHLDSGTYTAIASHDHQIIDRVKAYVKEKGISHSQFEFQMLYGFRTNLQEELVKEGYNVRIYVPFGIDWFGYFMRRLAERPQNVAFALRGFFSK” as the sequence, how does the “soluble on expression in E. coli” value read?
A: not soluble

Q: With “MGSDKIHHHHHHMNAHTNSQANTNVTNVVFRTHTQPDEAASKKAGRPIFTDIEVCDITFPANRQTRATFPAHDAEPNATRESMANGGGVMTYAQVYNAQYLAYKSGVAQPMGGTPLSEAPFLTESKRRELKALNVHTVEALASLDGMPLKQLGMGGRELKNQAVAYIDNAAGSADVTNLAAQVAILTQQLAEERRMREEFTNAALARRERIKAGEEIEDDEQPEDDEPAELEPEPDDFEPVLPPTFAEIDAMDDEALKVYIAKETGSRPRGNPNRDTLVAAAKELAS” as the sequence, how does the “soluble on expression in E. coli” value read?
A: not soluble

Q: Which “soluble on expression in E. coli” value does the source give for “MGSDKIHHHHHHMNAPANFDSLEVGFDVPALPGMDEADIQTPCLVLDLDALERNIKKMGDYARAHGMRHRVHGKMHKSVDVAKLQERLGGAIGVCCQKVSEAEVFARGGIKDVLVSNQVRDPAKIDRLARLPKLGARTIVCVDDPANVADLSAAAQKHDTEIECFVEIDCGAGRCGVTTTEDVVEIAQAIDAAPGLKFTGIQAYQGAMQHLDSYEARKEKLDVAIAQVRDAVEGLKAADLAPELVSGGGTGSYYFESNSGVYNELQCGSYAFMDADYGRILDQDGKRIDQGEWENAFFILTQVMSHAKADKAICDAGLKAQSVDSGLPFIFGRTDVEYVKCSDEHGVIADPDGVLKVGEKLKLVPGHCDPTANVHDWYVGVRNGKVETLWPVSARGKAY” here?
A: not soluble

Q: Which “soluble on expression in E. coli” value does the source give for “MGSDKIHHHHHHMNDFIKFTGPADVLAFIPHTLGQTPTESFVALTMQGNKIGATLRVDAPFGQDPVGYAQTIVSYLTADEAATGSLLVIYTDESTTDGSSPYAGHVQALSTELETAGMPLQDAWLVTSELWRNYHCTDTGCCPDQPLDAITTSNGNAALIYRGSAVTGFIAPAPFTGDETAREAITARKPDGWPEDLEASRAAWARVLKDPKSLTTETAYQLAGALQHPTIRDYMMGDIVPHAPEQFTSVMLGVFPTRPDWARVDTAQEVAFELMKATPEGQRAPMLCLIGWLEWLKGQSSFAARYFKLALEDTAGYRLAELLDELVNRGLLADCSRDRKKAYDRRLKR” here?
A: not soluble

Q: With “MGSDKIHHHHHHMNDKEFGQRVRQLRESASMTREQFCDDELELSVRQLTRIEAGASKPTFSKIQYIATRLGMGLYELMPDYVSLPERYSKLKFDVLRTPTYGNEDLAEKRDAMMTEIYDDYYDELPEEEKIVVDTLCSLFDVLDTDSQEYGKEILDDYLHQSYHRSKLSINDLMILRLFIEHCQLEDLSVGTSNYALFTDLIEKLPQSIYDVHSESLFIVRDLFLAIVRILFSKELYNHIPVYIEKIENIMELSQDFQKKPILNLVKWKYELKVQHNHEIAERYYNEAITFASLLNQFHLKEKLQMEWEKDTQSLKR” as the sequence, how does the “soluble on expression in E. coli” value read?
A: not soluble

Q: With “MGSDKIHHHHHHMNDLKRLPYEPVKGLLPRPAVGTSERVITLPEPDRTSGMPLMGTLWLRKSTREFDQQPLPLKQLSELLWAAAGVNRSLGGGRTAPSPYGETVIDVYVALPAGLYRYDPVHHCLELKRAADLRSMTGYQDFVGMAPLDLVFVANHGRMQEMPPKLRETFSAAAAGAMAENAYLYCASAGLGAVVRGWLNRRQLAEHMSLNEDEEPILSQTIGRAASHVTTTQA” as the sequence, how does the “soluble on expression in E. coli” value read?
A: not soluble

Q: With “MGSDKIHHHHHHMNFKEALEGIKLVLESKAVPLLVGESGIGKTSLVKKLSKDEEYYYINIDGNLLKEGEIGGLPVVQDYGDEKSLIKKTVYAAYYKFIKIDEILKNNPNQKVLLFIDEINRCEHSVQQEIMNIILNREINGYKLKDNITVIAAMNPSSKYDEFEESDYQVNDMDPAQEDRFVWIYLESDVNNWIEWGHERINGESRIHEDILGFIASFPEYLSTPNSKESIKATPRSWERVSNIYKAYIKKKTKVSRNIFYNLIRGNVGTSIAQDFINYIDESKSPLLTPEDIFANDCISEDIKDRIRKESHSRLFLSAKNILFYLENKEDRSREVEIFSEFLSLYPNDLKLGIMQNIKSDSSKKLYKEFLENTSFLENFFLMYEGIED” as the sequence, how does the “soluble on expression in E. coli” value read?
A: not soluble

Q: Which “soluble on expression in E. coli” value does the source give for “MGSDKIHHHHHHMNGGKPGVERDRREALLALAAALRPELHRYCARLMGSVIDGEDVVQDTFARAFVALDELCAVPQLRPWLFRIAHNRALDLLRSRATRVAEPIEAALEIVDDSKADAVETLMRKEAIETAVSRFAELPVVQRSVIILKDVLDEPLAEIAALLGISVDAVKAHLSRGRARLREINARTDPFPDARIASANVVRYINLFNQRDWDGLRALLAEDVRLQQSMHPPRSGAADVGMFFTIYAKSEGLWLKPAWVEGREVIAVFEHRAAPKPTHFMWLEWREGRISFIRDYRYVGYVADDARLVLASDVRSSGHGTKL” here?
A: not soluble

Q: With “MGSDKIHHHHHHMNGLDVLLSNNQNHHFYGVTIGVVTNNKDPKKLGRVKVKFPWLSSEEESYWARVVTLMAGNDRGIYFLPEVDDEVLVAFEQGDMNFPYILGALWNGKDKPPITNEDGKNNQRVIKSRSGHMIVLDDTEENEQIIIQDKTGKNKIVINSKENKMNIQVEKDLTIETKGKIILKSSDDDISIDCKNLQIKTQQNYQLEVGANCTIKAKSKYKLEAQSGLGIKCAAGVKINDGSLEVM” as the sequence, how does the “soluble on expression in E. coli” value read?
A: not soluble
